The results in this text go back to patent US20170349625A1.

Data set [1] deals with T1, 5,6-carboxyfluorescein labeled Tub-tag peptide (CF-Tub-tag, peptide 13).
T1 sequence: VDSVEGEGEEEGEE

Data set [2] deals with GBP4-Tub-tag (GFP-specific nanobody GBP4 with the Tub-tag sequence fused to its C-terminus). Description: cell-based or functional assay.
Sequence of GBP4-Tub-tag (GFP-specific nanobody GBP4 with the Tub-tag sequence fused to its C-terminus) (heavy, as listed by the source): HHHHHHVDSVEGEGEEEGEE

For “tubulin tyrosine ligase (TTL, Canis lupus)”, in data set [1], the “conjugate yield after 120 min at 37 C, 3-N3-L-tyrosine (3), TTL:peptide 1:200, isocratic HPLC” value was “After 120 min of incubation at 37 °C the conjugate yield with 1 and 3 was 63% and 80%, respectively”; the “conjugate yield after 120 min at 37 C, 3-formyl-L-tyrosine (1), TTL:peptide 1:200, isocratic HPLC” value was “After 120 min of incubation at 37 °C the conjugate yield with 1 and 3 was 63% and 80%, respectively”.
Take “tubulin tyrosine ligase (TTL, Canis lupus) (enzyme)”: in data set [2], the C-terminally modified GBP4 (3-N3-L-tyrosine incorporation followed by SPAAC to DBCO-biotin), 1:10 TTL/GBP4, 37 C, one hour came out at 71%; the conversion of GBP4 (3-N3-L-tyrosine incorporation followed by SPAAC to DBCO-biotin), 1:5 TTL/GBP4, 37 C, one hour is 82%; the conversion of GBP4, 1:5 TTL/GBP4, three hours is 99%; the conversion of GBP4, 1:10 TTL/GBP4, three hours was found to be 88%.
